Experimental data from article PMC9584350.

Target: Arf6 (co-precipitated with FLAG–AMPKα2 from cells), P62330
Assay: co-immunoprecipitation (IP anti-FLAG, immunoblot for Arf6), band quantification
Conditions: chain shown with the change; HEK 293T cells transfected with FLAG-AMPKα2 and Arf6-myc; n=4; empty (no FLAG-AMPKα2) control = 1; parent: est. 6.0; read off a plot

Chain of Arf6 (co-precipitated with FLAG–AMPKα2 from cells), P62330 (P62330 whole entry): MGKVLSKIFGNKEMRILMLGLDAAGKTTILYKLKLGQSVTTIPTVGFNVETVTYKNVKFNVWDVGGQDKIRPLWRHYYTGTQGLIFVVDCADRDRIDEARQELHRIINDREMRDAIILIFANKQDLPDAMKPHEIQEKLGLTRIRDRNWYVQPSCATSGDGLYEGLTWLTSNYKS

Row | Binder | response
1 | FLAG–AMPKα2-WT, P54646 W402A; H403A; L404A; G405A; I406A (protein) MAEKQKHDGRVKIGHYVLGDTLGVGTFGKVKIGEHQLTGHKVAVKILNRQKIRSLDVVGKIKREIQNLKLFRHPHIIKLYQVISTPTDFFMVMEYVSGGELFDYICKHGRVEEMEARRLFQQILSAVDYCHRHMVVHRDLKPENVLLDAHMNAKIADFGLSNMMSDGEFLRTSCGSPNYAAPEVISGRLYAGPEVDIWSCGVILYALLCGTLPFDDEHVPTLFKKIRGGVFYIPEYLNRSVATLLMHMLQVDPLKRATIKDIREHEWFKQDLPSYLFPEDPSYDANVIDDEAVKEVCEKFECTESEVMNSLYSGDPQDQLAVAYHLIIDNRRIMNQASEFYLASSPPSGSFMDDSAMHIPPGLKPHPERMPPLIADSPKARCPLDALNTTKPKSLAVKKAKAAAAARSQSKPYDIMAEVYRAMKQLDFEWKVVNAYHLRVRRKNPVTGNYVKMSLQLYLVDNRSYLLDFKSIDDEVVEQRSGSSTPQRSCSAAGLHRPRSSFDSTTAESHSLSGSLTGSLTGSTLSSVSPRLGSHTMDFFEMCASLITTLAR | 1.4
2 | FLAG–AMPKα2-WT, P54646 E418A; V419A; Y420A; R421A (protein) MAEKQKHDGRVKIGHYVLGDTLGVGTFGKVKIGEHQLTGHKVAVKILNRQKIRSLDVVGKIKREIQNLKLFRHPHIIKLYQVISTPTDFFMVMEYVSGGELFDYICKHGRVEEMEARRLFQQILSAVDYCHRHMVVHRDLKPENVLLDAHMNAKIADFGLSNMMSDGEFLRTSCGSPNYAAPEVISGRLYAGPEVDIWSCGVILYALLCGTLPFDDEHVPTLFKKIRGGVFYIPEYLNRSVATLLMHMLQVDPLKRATIKDIREHEWFKQDLPSYLFPEDPSYDANVIDDEAVKEVCEKFECTESEVMNSLYSGDPQDQLAVAYHLIIDNRRIMNQASEFYLASSPPSGSFMDDSAMHIPPGLKPHPERMPPLIADSPKARCPLDALNTTKPKSLAVKKAKWHLGIRSQSKPYDIMAAAAAAMKQLDFEWKVVNAYHLRVRRKNPVTGNYVKMSLQLYLVDNRSYLLDFKSIDDEVVEQRSGSSTPQRSCSAAGLHRPRSSFDSTTAESHSLSGSLTGSLTGSTLSSVSPRLGSHTMDFFEMCASLITTLAR | 1.3
